Measured values published in patent US20250388666A1 (BRIGHAM AND WOMEN S HOSPITAL, published 2025).
Where a chain is given by its changes, count along the chain named. Names may count otherwise. Read-outs that look alike come from different tables or passages of the source.

T1: CEACAM1 (Sino Biological) (human, UniProt P13688 35-428, limits assumed)
T1 construct: may be the same as CEACAM1-HIS; also called hCEACAM1; biotinylated soluble CEACAM1
T1 sequence: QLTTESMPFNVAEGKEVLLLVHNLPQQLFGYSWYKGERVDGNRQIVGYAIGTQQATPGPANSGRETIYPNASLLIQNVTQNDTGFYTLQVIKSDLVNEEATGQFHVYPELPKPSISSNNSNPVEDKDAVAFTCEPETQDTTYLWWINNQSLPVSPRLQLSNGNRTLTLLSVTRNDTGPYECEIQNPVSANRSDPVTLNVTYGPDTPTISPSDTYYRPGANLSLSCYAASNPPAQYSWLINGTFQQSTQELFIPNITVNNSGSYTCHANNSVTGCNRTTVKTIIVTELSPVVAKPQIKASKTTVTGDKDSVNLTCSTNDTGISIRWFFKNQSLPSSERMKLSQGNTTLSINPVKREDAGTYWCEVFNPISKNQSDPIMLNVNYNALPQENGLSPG

T2: CEACAM5 (Sino Biological) (human, UniProt P06731 35-685)
T2 construct: also called hCEACAM5
T2 sequence (looked up): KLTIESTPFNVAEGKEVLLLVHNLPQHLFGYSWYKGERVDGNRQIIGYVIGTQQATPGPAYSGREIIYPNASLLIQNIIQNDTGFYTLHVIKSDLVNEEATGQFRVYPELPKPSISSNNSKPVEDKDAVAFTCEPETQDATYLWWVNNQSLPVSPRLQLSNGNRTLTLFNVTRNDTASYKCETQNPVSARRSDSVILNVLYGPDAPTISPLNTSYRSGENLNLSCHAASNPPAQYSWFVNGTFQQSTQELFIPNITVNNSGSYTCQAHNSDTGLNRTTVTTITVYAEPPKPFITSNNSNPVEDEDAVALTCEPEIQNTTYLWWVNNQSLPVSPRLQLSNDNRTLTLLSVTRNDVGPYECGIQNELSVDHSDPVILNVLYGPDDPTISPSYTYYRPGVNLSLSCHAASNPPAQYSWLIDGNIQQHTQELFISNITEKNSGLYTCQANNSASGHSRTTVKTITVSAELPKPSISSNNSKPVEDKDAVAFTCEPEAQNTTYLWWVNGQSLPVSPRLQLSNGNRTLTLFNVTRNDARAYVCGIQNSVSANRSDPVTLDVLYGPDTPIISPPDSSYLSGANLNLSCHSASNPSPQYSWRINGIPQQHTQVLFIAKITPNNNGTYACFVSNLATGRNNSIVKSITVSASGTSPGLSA

T3: CEACAM3 (Sino Biological) (human, UniProt P40198 35-155, limits assumed)
T3 construct: also called hCEACAM3
T3 sequence (looked up): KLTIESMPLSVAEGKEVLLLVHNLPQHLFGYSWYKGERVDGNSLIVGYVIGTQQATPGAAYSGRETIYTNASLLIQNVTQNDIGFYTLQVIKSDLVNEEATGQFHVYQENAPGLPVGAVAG

T4: CEACAM6 (Sino Biological) (human, UniProt P40199 35-320)
T4 construct: also called hCEACAM6
T4 sequence (looked up): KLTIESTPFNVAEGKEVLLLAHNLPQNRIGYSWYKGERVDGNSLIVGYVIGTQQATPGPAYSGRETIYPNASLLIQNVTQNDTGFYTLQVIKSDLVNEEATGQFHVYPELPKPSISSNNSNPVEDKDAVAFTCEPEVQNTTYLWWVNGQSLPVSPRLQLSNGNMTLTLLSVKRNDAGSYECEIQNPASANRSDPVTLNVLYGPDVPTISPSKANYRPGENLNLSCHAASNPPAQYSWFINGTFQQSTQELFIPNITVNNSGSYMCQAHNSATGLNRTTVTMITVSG

T5: CEACAM1 on transfected HeLa cells (Homo sapiens (Human), UniProt P13688 35-526)
T5 construct: also called C1
T5 sequence: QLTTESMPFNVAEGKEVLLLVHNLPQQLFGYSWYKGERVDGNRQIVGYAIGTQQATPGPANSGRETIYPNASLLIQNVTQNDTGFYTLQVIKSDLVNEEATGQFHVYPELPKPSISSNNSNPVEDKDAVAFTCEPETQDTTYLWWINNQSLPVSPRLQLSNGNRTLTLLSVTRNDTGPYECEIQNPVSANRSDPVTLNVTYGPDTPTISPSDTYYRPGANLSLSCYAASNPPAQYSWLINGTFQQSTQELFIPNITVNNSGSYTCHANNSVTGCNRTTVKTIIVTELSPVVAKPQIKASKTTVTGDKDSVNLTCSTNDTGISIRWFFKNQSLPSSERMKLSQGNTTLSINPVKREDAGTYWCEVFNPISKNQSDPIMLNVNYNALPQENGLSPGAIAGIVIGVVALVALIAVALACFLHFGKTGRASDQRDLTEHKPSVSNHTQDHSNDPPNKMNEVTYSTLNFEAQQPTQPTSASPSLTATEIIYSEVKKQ

T6: CEACAM5 on transfected HeLa cells (UniProt P06731 35-685)
T6 construct: whole, on cells; also called C5
T6 sequence (looked up): T2 sequence (looked up)

B1: He9/L3 (antibody, IgG4, V domains shown)
VH: EVQLLESGGGLVQPGGSLRLSCAASGFSFSDYYLYWVRQAPGKGLEWVATISVGGGQTSYADSVKGRFTISRDNSKNTLYLQMNSLRAEDTAMYYCARAMYYGPAWFAYWGQGTLVTVSS
VL: DIVMTQSPDSLAVSLGERATINCKSSQSLLNSANQKNYLAWYQQKPGQPPKLLIYFASTRESGVPDRFSGSGSGTDFTLTISSLQAEDVAVYYCQSHFPFPFTFGGGTKVEIK
notes: IgG4 S241P, kappa; also called He9 / 3
B2: Parent VH/L4#2 (antibody, IgG4, V domains shown)
VH: B1 VH with A97T, A99G, M100L
VL: B1 VL with F98Y, F100Y, F102Y
notes: IgG4 S241P, kappa; also called VHp/L4 #2; VH2 N56Q / 4#2
B3: He9/L17 (antibody, IgG4, V domains shown)
VH: B1 VH
VL: B1 VL with F98Y, F100Y, F102Y
notes: IgG4 S241P, kappa; also called He9 / 17
B4: Parent VH/L18 (antibody, IgG4, V domains shown)
VH: B1 VH with A97T, A99G, M100L
VL: B1 VL with F100Y
notes: IgG4 S241P, kappa; also called VHp/L18; VH2 N56Q / 18
B5: He17/L16 (antibody, IgG4, V domains shown)
VH: B1 VH with A97T, M100R, Y101T
VL: B1 VL with F98Y, F100Y
notes: IgG4 S241P, kappa; also called 17 / 16
B6: He4/L16 (antibody, IgG4, V domains shown)
VH: B1 VH with A97T, M100L
VL: B1 VL with F98Y, F100Y
notes: IgG4 S241P, kappa; also called He4 / 16
B7: He9/L4#2 (antibody, IgG4, V domains shown)
VH: B1 VH
VL: B1 VL with F98Y, F100Y, F102Y
notes: IgG4 S241P, kappa
B8: VH1 N56Q/VK4 S27(f)A (antibody, human IgG4, V domains shown)
VH: B1 VH with A61P, A97T, A99G, M100L
VL: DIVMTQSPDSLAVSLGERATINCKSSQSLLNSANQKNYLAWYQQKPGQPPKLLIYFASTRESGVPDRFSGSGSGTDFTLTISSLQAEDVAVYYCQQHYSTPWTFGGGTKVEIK
notes: aglycosylated humanized variant; human IgG4

Assays:
[1] = molecular target: T1, CEACAM1 (Sino Biological); test: SPR single-cycle
Outline: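 Humanized affinity-matured IgGs from crude supernatants captured on Protein A to ~100 RU, with CEACAM1 analyte injected at 25–100 nM (three-point, two-fold) in HBS-P+ without regeneration. 200 s association per injection, 300 s single dissociation; reference-channel and blank subtracted.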

[2] = molecular target: T1, CEACAM1 (Sino Biological); test: SPR multi-cycle, IgG on Protein A
Description: Multi-cycle kinetics analysis was performed on the twelve lead antibodies using a Biacore T200 instrument running Biacore T200 Evaluation Software V3.0.1 (Uppsala, Sweden) to establish an accurate affinity for CEACAM1. The purified antibodies were diluted to a concentration of […] in HBS-P+. At the start of each cycle, each antibody was captured on the Protein A surface to give an RL of ˜100 RU. Following capture, the surface was allowed to stabilize. Kinetic data was obtained using a flow rate of […] to minimize any potential mass transfer effects. For the kinetics analysis, CEACAM1 was used. Multiple repeats of the blank ([…]) and a repeat of a single concentration of the analyte were programmed into the kinetic run in order to check the stability of both the surface and analyte over the kinetic cycles. For kinetic analysis, a two-fold dilution range was selected from 200 to 3.125 nM CEACAM1. The association phase of CEACAM1 was monitored for 275 seconds and the dissociation phase was measured for 250 seconds. Regeneration of the Protein A surface was conducted using two injections of 10 mM glycine-HCL pH 1.5 at the end of each cycle.
The signal from the reference channel Fc1 was subtracted from that of Fc2, Fc3 and Fc4 to correct for differences in non-specific binding to a reference surface, and a global Rmax parameter was used in the 1-to-1 binding model. The relative KD was calculated by dividing the KD of the RSB02 Parent by that of the humanized and affinity matured variants on the same chip.

[3] = molecular target: T2, CEACAM5 (Sino Biological); test: binding ELISA on plate-coated CEACAM (0.5 µg/mL); antibody at 1.67, 0.062 and 0.0069 µg/mL; signal as % of parent IgG on CEACAM1 at 1.67 µg/mL on the same plate
[4] = molecular target: T3, CEACAM3 (Sino Biological); test: as above
[5] = molecular target: T4, CEACAM6 (Sino Biological); test: as above
[6] = molecular target: T3, CEACAM3 (Sino Biological); test: as above; remark: listed apart in the source
[7] = molecular target: T4, CEACAM6 (Sino Biological); test: as above; remark: listed apart in the source
[8] = molecular target: T2, CEACAM5 (Sino Biological); test: as above; remark: listed apart in the source
[9] = molecular target: T5, CEACAM1 on transfected HeLa cells; test: flow cytometry, transfected HeLa
Description: (§1) Binding selectivity of the selected antibody variants was assessed by flow cytometry using HeLa cells transfected with vectors expressing CEACAM1, CEACAM5, and CEACAM6, respectively. The resulting cells were used for flow cytometry experiments and were cultured at 37° C., 5.0% CO₂ in Dulbecco's modified Eagle's medium supplemented with 10% fetal bovine serum, penicillin (100 U/ml) and dihydrostreptomycin ([…]). Cell lines were stained with the indicated antibodies followed by fluorochrome-conjugated monoclonal antibody specific for the indicated antibody isotypes such as human IgG4 or mouse IgG1 together with viable dye (DAPI). Data were acquired with a Cytoflex flow cytometer ([…]) and analyzed with FlowJo software (TreeStar, V7.6.5 for Windows).

[10] = molecular target: T6, CEACAM5 on transfected HeLa cells; test: flow cytometry, transfected HeLa
Description: as §1

Binder | Kd [1] [nM] | fold better than Parent (KD) [1] [fold] | Kd [2] [nM] | koff [2] [s⁻¹] | kon [2] [M⁻¹ s⁻¹] | relative KD to Parent [2] [ratio] | binding result [3] | binding result [4] | binding result [5] | binding result [6] | binding result [7] | binding result [8] | relative fluorescence intensity [9] | relative fluorescence intensity [10]
B1 | 27 | 5.85 | 31.6 | 0.00139 | 44000 | 4.15 | binds |  |  |  |  |  |  | 
B2 | 163 | 3.38 | 147 | 0.00437 | 29800 | 1.3 |  | no binding (tested: 1.67 µg/mL) | no binding (tested: 1.67 µg/mL) |  |  |  |  | 
B3 | 33 | 4.88 | 40.9 | 0.0015 | 36700 | 4.55 | binds |  |  |  |  |  |  | 
B4 | 56 | 2.83 | 101 | 0.00362 | 35700 | 1.84 |  | no binding (tested: 1.67 µg/mL) | no binding (tested: 1.67 µg/mL) |  |  |  |  | 
B5 | 67 | 2.36 | 25.8 | 0.00795 | 308000 | 3.31 |  |  |  | no binding (tested: 1.67 µg/mL) | no binding (tested: 1.67 µg/mL) |  |  | 
B6 | 52 | 3.04 | 38.9 | 0.00146 | 37500 | 3.16 |  |  |  | no binding (tested: 1.67 µg/mL) |  |  |  | 
B7 | 57 | 9.71 | 33.7 | 0.0013 | 38600 | 3.89 |  |  |  |  |  | binds |  | 
B8 |  |  |  |  |  |  |  |  |  |  |  |  | 87.1 | 0.0622
